This is an account of results in publication doi:10.1101/2023.10.29.564595, “The N-terminal region of DNMT3A combines multiple chromatin reading motifs to guide recruitment”.

In this series the target is DNMT3A1 1-427 R181A/R183A (human, UniProt Q9Y6K1 1-427, R181A;R183A). As to the kind of experiment: EMSA; only marginally affected; EMSA: 15 mM HEPES pH 7.5, 75 mM NaCl, 0.05% Triton X-100, 0.05 mg/mL BSA, 10% glycerol, 1 mM DTT, 0.5 mg/mL salmon sperm DNA (nucleosomes), 2.4 nM tracer, 1 h on ice; full-length complex: 17.5 mM HEPES pH 8, 150 mM NaCl, 1.5 mM MgCl2, 2.5% glycerol, 1 mM DTT, 0.1 mg/mL BSA, on ice. The following applies: protein: recombinant; tags: His-MBP; label: 5' 6-FAM; blunt.
DNMT3A1 1-427 R181A/R183A, sequence (Q9Y6K1 1-427 R181A/R183A): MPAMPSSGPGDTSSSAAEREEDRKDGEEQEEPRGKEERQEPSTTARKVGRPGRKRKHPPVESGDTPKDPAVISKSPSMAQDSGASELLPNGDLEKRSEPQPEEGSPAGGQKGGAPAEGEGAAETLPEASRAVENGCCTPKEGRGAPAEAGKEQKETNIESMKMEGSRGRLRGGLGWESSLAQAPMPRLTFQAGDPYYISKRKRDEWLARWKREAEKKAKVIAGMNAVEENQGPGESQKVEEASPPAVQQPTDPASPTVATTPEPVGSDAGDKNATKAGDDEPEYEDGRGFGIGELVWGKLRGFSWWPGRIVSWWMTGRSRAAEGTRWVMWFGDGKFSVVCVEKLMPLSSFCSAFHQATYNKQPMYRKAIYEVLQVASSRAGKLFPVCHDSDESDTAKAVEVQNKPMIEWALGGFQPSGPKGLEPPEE

B1: free 175 bp Widom601 DNA (dsDNA)
DNA 1: TATACGCGGCCGCCCTGGAGAATCCCGGTGCCGAGGCCGCTCAATTGGTCGTAGACAGCTCTAGCACCGCTTAAACGCACGTACGCGCTGTCCCCCGCGTTTTAACCGCCAAGGGGATTACTCCCTAGTCTCCAGGCACGTGTCAGATATATACATCCTGTGCAATGTGTTCCAT
DNA 2: ATGGAACACATTGCACAGGATGTATATATCTGACACGTGCCTGGAGACTAGGGAGTAATCCCCTTGGCGGTTAAAACGCGGGGGACAGCGCGTACGTGCGTTTAAGCGGTGCTAGAGCTGTCTACGACCAATTGAGCGGCCTCGGCACCGGGATTCTCCAGGGCGGCCGCGTATA
As for B1, the binding result is on record as “binds”.
